Positions count from the first letter of the chain named.

The target of assay [1] is T1, wtVLPs of parvovirus B19 genotype 1 (VP2 only) (parvovirus B19 genotype 1, UniProt P07299 228-781).
T1 construct: Intact virus-like particles self-assembled from VP2 alone, made in Sf9 cells with baculovirus; also called B19V genotype 1; Prototype Q399QYTDQ404
T1 sequence: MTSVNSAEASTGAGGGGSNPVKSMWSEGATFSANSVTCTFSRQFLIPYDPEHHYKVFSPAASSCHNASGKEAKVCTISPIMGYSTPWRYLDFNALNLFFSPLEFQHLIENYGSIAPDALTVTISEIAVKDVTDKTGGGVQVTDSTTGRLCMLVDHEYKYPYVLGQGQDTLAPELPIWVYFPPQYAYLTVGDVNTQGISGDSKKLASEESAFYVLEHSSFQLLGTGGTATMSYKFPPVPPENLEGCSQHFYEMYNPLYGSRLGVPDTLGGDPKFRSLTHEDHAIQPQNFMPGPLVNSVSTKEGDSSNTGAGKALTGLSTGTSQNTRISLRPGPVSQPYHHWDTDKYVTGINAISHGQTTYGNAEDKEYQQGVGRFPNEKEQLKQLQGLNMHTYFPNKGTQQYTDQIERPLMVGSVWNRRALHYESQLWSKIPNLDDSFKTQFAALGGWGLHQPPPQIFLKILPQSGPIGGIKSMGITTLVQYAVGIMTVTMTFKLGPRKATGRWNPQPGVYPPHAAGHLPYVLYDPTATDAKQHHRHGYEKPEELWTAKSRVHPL
The assay is described as follows: ELISA, VLPs coated.
Description: (§1) First, 96-well ELISA plates (Immunolon 2; Dynatech) were coated, either 1 h at 37° C. or overnight at 4° C., with 250 to 500 ng per well of B19V VLPs. Intact VLPs were re-suspended in PBS, and the disrupted VLPs were re-suspended in the following solution: 0.2 M NaCO₃, 0.01 M dithiothreitol, pH 7.0, to detect sequential epitopes. The plates were washed three times with PBS, then saturated with bovine albumin via PBS containing 5% bovine serum albumin (5% PBSA) for 1 h at 37° C. After washing three times, plates were then incubated with primary antibodies. Primary antibodies used were rabbit sera (at 1/1000), mouse sera (1/100 dilution) to B19V VLPs, or supernatant of hybridoma cells without dilution for 1 h at 37° C. Thereafter, plates were washed thrice with PBS, then incubated with alkaline phosphatase-conjugated secondary antibodies, with either goat anti-mouse or anti-rabbit IgG (H+L) (Sigma, USA) at a dilution of 1:5000 for 1 h at 37° C. After washing with PBS, bound antibodies were detected with an alkaline phosphatase chromogenic substrate (Phosphatase substrate, Sigma, USA), and absorption was measured at 405 nm. One percent PBSA and sera collected from pre-immune animals were used as negative controls. Human papillomavirus (HPV) and mouse parvovirus (MPV) VLPs were used to check the cross-reactivity of primary antibodies with other types of VLPs. All antibodies were diluted in 1% PBSA.

In assay [2] the target is T2, VLPs of B19V genotype 3 (V9 strain VP2) (parvovirus B19 genotype 3, UniProt P07299 228-781).
T2 construct: Intact VLPs of non-mutated VP2
T2 chain: T1 sequence with V21T, S32T, D191E, Q220E, T227S, P236A, V294I, S304N
Kind of assay: ELISA, VLPs coated.
Description: as §1

Assay [3] addresses T3, VLPs of B19V genotype 2 (Lali strain VP2) (parvovirus B19 genotype 2, UniProt P07299 228-781).
T3 construct: Intact VLPs of non-mutated VP2
T3 chain: T1 sequence with S32T, Q220E, T227S, S304T, N323S, M389I
The assay is described as follows: ELISA, VLPs coated.
Description: as §1

Assay [4] deals with T1, wtVLPs of parvovirus B19 genotype 1 …. The assay is described as follows: ELISA, intact VLPs coated, hybridoma supernatant. For orientation: An ELISA detects its analyte on a solid surface through an enzyme-linked reagent.
The target in a further assay is T4, QQW401TDQ-VLPs of B19V (parvovirus B19 genotype 1 (mutated), UniProt P07299 228-781).
T4 construct: also called construct B
T4 chain: T1 sequence with Y401W
Kind of assay: ELISA, intact VLPs coated, hybridoma supernatant.

B1: MAb #25 (antibody, V domains shown)
VH: QVQLQQPGAELVRPGASVKLSCKASGYTFTNYWMHWVKQRPEQGLEWIGRIDPYDSETHYNQKFKDKAILTVDTSSNTAYMQLSSLTSEDSAVYYCTSYYYGSNYVWHFDVWGAGTTVTVSS
VL: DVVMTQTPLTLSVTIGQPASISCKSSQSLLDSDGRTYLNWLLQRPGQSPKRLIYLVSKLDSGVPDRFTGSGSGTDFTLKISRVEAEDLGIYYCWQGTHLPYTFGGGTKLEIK
notes: Murine hybridoma antibody, supernatant; also called antibody 25
As to B1, the “ELISA absorbance (405 nm)” value in assay [1] amounted to 2.67; in assay [2], 2.65; in assay [3], 2.54; in assay [4], 2.86; in the assay with QQW401TDQ-VLPs of B19V, 1.53.

B2: MAb #91 (antibody, V domains shown)
VH: EVQLQQSGPELVKPGASVKISCKASGYSFTDYFMNWVKQSHGKSLEWIGRINPYNGDSFYNQNFRGSVTLTVDKSSGTAHMELLSLTSEDSTVYYCGAYRYDGYAMDYWGQGTSVTVSS
VL: DVVMTQTPLSLPVSLGDQASISCRSSQSLVHSDGNTYLHWYLQKPGQSPKLLIYKVSNRFSGVPDRFSGSGSGTDFTLKISRVEAEDLGVYFCSQSTHVPFTFGSGTKLEIK
notes: Murine hybridoma antibody, supernatant; also called antibody 91
With B2, the “ELISA absorbance (405 nm)” value in assay [1] amounted to 3.43; in assay [2] it was 3.05; in assay [3], 3.09; in assay [4] it was 3.72; with QQW401TDQ-VLPs of B19V it was 1.64.

For the origin of these results see patent US20230049732A1 (UNIVERSITY OF LOUISVILLE RESEARCH FOUNDATION, published 2023).
